*: point of attachment. FITC = O=C1OC2(c3ccc(O)cc3Oc3cc(O)ccc32)c2ccc(NC(=S)*)cc21; Ahx = NCCCCCC(=O)O
What was measured:
[1] = molecular target: purified recombinant His-tagged VIM (Homo sapiens, UniProt P08670); test: IMAC pull-down / comparative evaluation of vimentin-binding aptamers (net fluorescent signal with and without r-vimentin); settings: His-Tag beads, FIG. 5
Text: FIG. 4 is a schematic and photograph of a IMAC Pull-down assay. The numbers 1, 2, 4, 7, 9, 11, 14, 16, 17, and 18 under the tubes correspond to aptamers consisting of SEQ ID NOs: 1, 2, 4, 7, 9, 11, 14, 16, 17, and 18, respectively. IMAC=[…]/Ni- or Metal-chelate chromatography.
FIG. 5 is a graph showing a comparative evaluation of vimentin-binding aptamers. The numbers 1, 2, 4, 7, 9, 11, 14, 16, 17, 18, 22, and 23 under the graph correspond to aptamers consisting of SEQ ID NOs: 1, 2, 4, 7, 9, 11, 14, 16, 17, 18, 49, and 51, respectively.
Aptamers containing VIM binding domains were allowed to associate with purified recombinant His-tagged VIM, followed by the addition of His-Tag beads, which were then used to concentrate the His-VIM and associated aptamers (see FIG. 4). Numbers below the tubes in FIG. 4 reading from left to right, top to bottom, correspond to aptamers that include SEQ ID NOs: 1, 2, 4, 7, 9, 11, 14, 16, 17, and 18, respectively.
The comparative binding efficiency of the aptamers was evaluated by quantifying the net fluorescent signal in the presence and absence of vimentin (e.g., r-vimentin)(see FIG. 5). Numbers 1, 2, 4, 7, 9, 11, 14, 16, 17, 18, 22, and 23 below the graph correspond to aptamers that include SEQ ID NOs: 1, […], 4, 7, […], 11, 14, 16, 17, 18, 49, and 51, respectively. VIM-binding sequences from Phage Display studies were positive.

collagen-agarose beads = test: Collagen agarose binding assay; settings: loaded in PBS pH 7.4, stringent washing, 10 column volumes of 1M NaCl in PBST, FIG. 3
Text: FIG. 3 is a schematic and a photograph of a collagen agarose binding assay. Apt #1 is an aptamer consisting of SEQ ID NO: 1; Apt #7 is an aptamer consisting of SEQ ID NO: 7; Apt #19 is an aptamer consisting of SEQ ID NO: 19; and Apt #20 is an aptamer consisting of SEQ ID NO: 20. CBD=collagen-binding domain; CBD1=bovine vWF sequence comprising SEQ ID NO: 22; CBD2=human vWF sequence comprising SEQ ID NO: 23. […] Aptamers and reporters were mixed and loaded under mild binding conditions (PBS, pH 7.4), followed by washing with increasing concentrations of salt and/or detergent (PBST, using Tween 20). Stringent washing generally includes 10 column volumes of 1M NaCl in PBST, pH 7.4).

purified recombinant His-tagged VIM, sequence (P08670 whole entry): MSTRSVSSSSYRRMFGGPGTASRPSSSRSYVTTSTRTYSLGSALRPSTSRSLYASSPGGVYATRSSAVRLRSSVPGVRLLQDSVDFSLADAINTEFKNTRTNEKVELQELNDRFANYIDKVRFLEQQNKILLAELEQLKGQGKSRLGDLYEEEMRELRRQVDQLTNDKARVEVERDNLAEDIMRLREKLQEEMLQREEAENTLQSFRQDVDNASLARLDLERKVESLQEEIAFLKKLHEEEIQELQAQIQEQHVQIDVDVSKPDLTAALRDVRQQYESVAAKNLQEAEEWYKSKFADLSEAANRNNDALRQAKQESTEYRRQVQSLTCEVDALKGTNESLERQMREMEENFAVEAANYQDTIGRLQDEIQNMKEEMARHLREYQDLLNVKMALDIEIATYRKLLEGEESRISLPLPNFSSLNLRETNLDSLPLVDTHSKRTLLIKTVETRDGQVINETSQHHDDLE

| binding to collagen-agarose beads (collagen-agarose beads) | Substance | comparative binding efficiency (net fluorescent signal in the presence and absence of vimentin) [1] |
| --- | --- | --- |
| – | (FITC-Ahx)AGKKPRVTVTNVFLYNRPLNSTE-free acid ({FITC-Ahx}-AGKKPRVTVTNVFLYNRPLNSTE-OH; SMILES CC(C)C[C@H](NC(=O)[C@H](Cc1ccccc1)NC(=O)[C@@H](NC(=O)[C@H](CC(N)=O)NC(=O)[C@@H](NC(=O)[C@@H](NC(=O)[C@@H](NC(=O)[C@@H](NC(=O)[C@H](CCCNC(=N)N)NC(=O)[C@@H]1CCCN1C(=O)[C@H](CCCCN)NC(=O)[C@H](CCCCN)NC(=O)CNC(=O)[C@H](C)NC(=O)CCCCCNC(=S)Nc1ccc2c(c1)C(=O)OC21c2ccc(O)cc2Oc2cc(O)ccc21)C(C)C)[C@@H](C)O)C(C)C)[C@@H](C)O)C(C)C)C(=O)N[C@@H](Cc1ccc(O)cc1)C(=O)N[C@@H](CC(N)=O)C(=O)N[C@@H](CCCNC(=N)N)C(=O)N1CCC[C@H]1C(=O)N[C@@H](CC(C)C)C(=O)N[C@@H](CC(N)=O)C(=O)N[C@@H](CO)C(=O)N[C@H](C(=O)N[C@@H](CCC(=O)O)C(=O)O)[C@@H](C)O) [Aptamer #22] | Strong binding |
| – | (FITC-Ahx)AGKKPSVTVTNVFLYNRPLNSTE-free acid ({FITC-Ahx}-AGKKPSVTVTNVFLYNRPLNSTE-OH; SMILES CC(C)C[C@H](NC(=O)[C@H](Cc1ccccc1)NC(=O)[C@@H](NC(=O)[C@H](CC(N)=O)NC(=O)[C@@H](NC(=O)[C@@H](NC(=O)[C@@H](NC(=O)[C@@H](NC(=O)[C@H](CO)NC(=O)[C@@H]1CCCN1C(=O)[C@H](CCCCN)NC(=O)[C@H](CCCCN)NC(=O)CNC(=O)[C@H](C)NC(=O)CCCCCNC(=S)Nc1ccc2c(c1)C(=O)OC21c2ccc(O)cc2Oc2cc(O)ccc21)C(C)C)[C@@H](C)O)C(C)C)[C@@H](C)O)C(C)C)C(=O)N[C@@H](Cc1ccc(O)cc1)C(=O)N[C@@H](CC(N)=O)C(=O)N[C@@H](CCCNC(=N)N)C(=O)N1CCC[C@H]1C(=O)N[C@@H](CC(C)C)C(=O)N[C@@H](CC(N)=O)C(=O)N[C@@H](CO)C(=O)N[C@H](C(=O)N[C@@H](CCC(=O)O)C(=O)O)[C@@H](C)O) [Aptamer #23] | Strong binding |
| bind tightly | acetyl-RRGVRVAWREPGRMELNMPHGGSGK(FITC)-amide (Ac-RRGVRVAWREPGRMELNMPHGGSGK(FITC)-NH2; SMILES CSCC[C@H](NC(=O)[C@H](CCCNC(=N)N)NC(=O)CNC(=O)[C@@H]1CCCN1C(=O)[C@H](CCC(=O)O)NC(=O)[C@H](CCCNC(=N)N)NC(=O)[C@H](Cc1c[nH]c2ccccc12)NC(=O)[C@H](C)NC(=O)[C@@H](NC(=O)[C@H](CCCNC(=N)N)NC(=O)[C@@H](NC(=O)CNC(=O)[C@H](CCCNC(=N)N)NC(=O)[C@H](CCCNC(=N)N)NC(C)=O)C(C)C)C(C)C)C(=O)N[C@@H](CCC(=O)O)C(=O)N[C@@H](CC(C)C)C(=O)N[C@@H](CC(N)=O)C(=O)N[C@@H](CCSC)C(=O)N1CCC[C@H]1C(=O)N[C@@H](Cc1c[nH]cn1)C(=O)NCC(=O)NCC(=O)N[C@@H](CO)C(=O)NCC(=O)N[C@@H](CCCCNC(=S)Nc1ccc2c(c1)C(=O)OC21c2ccc(O)cc2Oc2cc(O)ccc21)C(N)=O) [Aptamer #20] | – |
| – | acetyl-TRKRIRIQRGPGRAFVTIGGK(FITC)-amide (Ac-TRKRIRIQRGPGRAFVTIGGK(FITC)-NH2; SMILES CC[C@H](C)[C@H](NC(=O)[C@H](CCCNC(=N)N)NC(=O)[C@@H](NC(=O)[C@H](CCCNC(=N)N)NC(=O)[C@H](CCCCN)NC(=O)[C@H](CCCNC(=N)N)NC(=O)[C@@H](NC(C)=O)[C@@H](C)O)[C@@H](C)CC)C(=O)N[C@@H](CCC(N)=O)C(=O)N[C@@H](CCCNC(=N)N)C(=O)NCC(=O)N1CCC[C@H]1C(=O)NCC(=O)N[C@@H](CCCNC(=N)N)C(=O)N[C@@H](C)C(=O)N[C@@H](Cc1ccccc1)C(=O)N[C@H](C(=O)N[C@H](C(=O)N[C@H](C(=O)NCC(=O)NCC(=O)N[C@@H](CCCCNC(=S)Nc1ccc2c(c1)C(=O)OC21c2ccc(O)cc2Oc2cc(O)ccc21)C(N)=O)[C@@H](C)CC)[C@@H](C)O)C(C)C) [Aptamer #17] | Strong binding |
| bind tightly | acetyl-VNTANSTGGSGARRGVRVAWREPGRMELNMPHGGSGK(FITC)-amide (Ac-VNTANSTGGSGARRGVRVAWREPGRMELNMPHGGSGK(FITC)-NH2; SMILES CSCC[C@H](NC(=O)[C@H](CCCNC(=N)N)NC(=O)CNC(=O)[C@@H]1CCCN1C(=O)[C@H](CCC(=O)O)NC(=O)[C@H](CCCNC(=N)N)NC(=O)[C@H](Cc1c[nH]c2ccccc12)NC(=O)[C@H](C)NC(=O)[C@@H](NC(=O)[C@H](CCCNC(=N)N)NC(=O)[C@@H](NC(=O)CNC(=O)[C@H](CCCNC(=N)N)NC(=O)[C@H](CCCNC(=N)N)NC(=O)[C@H](C)NC(=O)CNC(=O)[C@H](CO)NC(=O)CNC(=O)CNC(=O)[C@@H](NC(=O)[C@H](CO)NC(=O)[C@H](CC(N)=O)NC(=O)[C@H](C)NC(=O)[C@@H](NC(=O)[C@H](CC(N)=O)NC(=O)[C@@H](NC(C)=O)C(C)C)[C@@H](C)O)[C@@H](C)O)C(C)C)C(C)C)C(=O)N[C@@H](CCC(=O)O)C(=O)N[C@@H](CC(C)C)C(=O)N[C@@H](CC(N)=O)C(=O)N[C@@H](CCSC)C(=O)N1CCC[C@H]1C(=O)N[C@@H](Cc1c[nH]cn1)C(=O)NCC(=O)NCC(=O)N[C@@H](CO)C(=O)NCC(=O)N[C@@H](CCCCNC(=S)Nc1ccc2c(c1)C(=O)OC21c2ccc(O)cc2Oc2cc(O)ccc21)C(N)=O) [Aptamer #7] | – |

| Substance | binding to collagen-agarose beads (collagen-agarose beads) | comparative binding efficiency (net fluorescent signal in the presence and absence of vimentin) [1] |
| --- | --- | --- |
| acetyl-STRSVSSSSYRRMFGGPGTASK(FITC)-amide (Ac-STRSVSSSSYRRMFGGPGTASK(FITC)-NH2; SMILES CSCC[C@H](NC(=O)[C@H](CCCNC(=N)N)NC(=O)[C@H](CCCNC(=N)N)NC(=O)[C@H](Cc1ccc(O)cc1)NC(=O)[C@H](CO)NC(=O)[C@H](CO)NC(=O)[C@H](CO)NC(=O)[C@H](CO)NC(=O)[C@@H](NC(=O)[C@H](CO)NC(=O)[C@H](CCCNC(=N)N)NC(=O)[C@@H](NC(=O)[C@H](CO)NC(C)=O)[C@@H](C)O)C(C)C)C(=O)N[C@@H](Cc1ccccc1)C(=O)NCC(=O)NCC(=O)N1CCC[C@H]1C(=O)NCC(=O)N[C@H](C(=O)N[C@@H](C)C(=O)N[C@@H](CO)C(=O)N[C@@H](CCCCNC(=S)Nc1ccc2c(c1)C(=O)OC21c2ccc(O)cc2Oc2cc(O)ccc21)C(N)=O)[C@@H](C)O) [Aptamer #9] | bind tightly | – |

Source: US10981980B2, “Polypeptide targeting aptamers for characterization, capture, and clinical management of circulating tumor cells” (Counterpoint Biomedica LLC, priority 2016, dated 2021)
